# Test results published in patent US20130078188.
# T1: Cy7-NH-e9-c(S-Peg12) oDPRSFL-r9-c(Cy5)-CONH2 (5, …)
# T1 chain: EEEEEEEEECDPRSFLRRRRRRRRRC
# T2: Cy7-NH-e9-c(S-Peg12) oPPRSFL-r9-c(Cy5)-CONH2 (10, …)
# T2 chain: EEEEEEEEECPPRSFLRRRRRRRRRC
# T3: Cy7-NH-e9-c(S-Peg12)oPLGC(Me)AG-r9-c(Cy5)-CONH2 (20, …(Me)AG)
# T3 chain: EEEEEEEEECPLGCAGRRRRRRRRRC
# B1: plasmin (protein)
# chain: KVYLSECKTGNGKNYRGTMSKTKNGITCQKWSSTSPHRPRFSPATHPSEGLEENYCRNPDNDPQGPWCYTTDPEKRYDYCDILECEEECMHCSGENYDGKISKTMSGLECQAWDSQSPHAHGYIPSKFPNKNLKKNYCRNPDRELRPWCFTTDPNKRWELCDIPRCTTPPPSSGPTYQCLKGTGENYRGNVAVTVSGHTCQHWSAQTPHTHNRTPENFPCKNLDENYCRNPDGKRAPWCHTTNSQVRWEYCKIPSCDSSPVSTEQLAPTAPPELTPVVQDCYHGDGQSYRGTSSTTTTGKKCQSWSSMTPHRHQKTPENYPNAGLTMNYCRNPDADKGPWCFTTDPSVRWEYCNLKKCSGTEASVVAPPPVVLLPDVETPSEEDCMFGNGKGYRGKRATTVTGTPCQDWAAQEPHRHSIFTPETNPRAGLEKNYCRNPDGDVGGPWCYTTNPRKLYDYCDVPQCAAPSFDCGKPQVEPKKCPGRVVGGCVAHPHSWPWQVSLRTRFGMHFCGGTLISPEWVLTAAHCLEKSPRPSSYKVILGAHQEVNLEPHVQEIEVSRLFLEPTRKDIALLKLSSPAVITDKVIPACLPSPNYVVADRTECFITGWGETQGTFGAGLLKEAQLPVIENKVCNRYEFLNGRVQSTELCAGHLAGGTDSCQGDSGGPLVCFEKDKYILQGVTSWGLGCARPNKPGVYVRVSRFVTWIEGVMRNN
# Assays:
# [1] = target: T1, Cy7-NH-e9-c(S-Peg12) …
# [2] = target: T2, Cy7-NH-e9-c(S-Peg12) …
# [3] = target: T3, Cy7-NH-e9-c(S-Peg12)oPLGC(Me)AG-r9-c(Cy5 …)
protein,measurement,setting,value
B1,kcat/Km,[1],10000 M⁻¹ s⁻¹
same,"kcat/Km, fold lower than for thrombin",[2],14.3 fold lower kcat/Km
same,"peptide cleavage, SDS-PAGE with Cy5/Cy7 ratio imaging",[3],not cleaved by any of the pro-coagulation enzymes
